Experimental data as given in publication PMC3229523, “Identification of Lactoferricin B Intracellular Targets Using an Escherichia coli Proteome Chip” (PLoS ONE, 2011).
Ends that are not written are not given here. * marks the point of attachment. Biotin = O=C1N[C@H]2[C@H](CS[C@H]2CCCCC(=O)*)N1

Assays:
Assay in all cases: peptide or protein array; E. coli proteome chip: purified His-tagged proteins printed in duplicate on Fullmoon slides, blocked with 1% BSA; 10 nM N-terminal biotinylated LfcinB with 1% BSA, room temperature, 1 h; detected with DyLight 649-labeled streptavidin, ratio to DyLight 549-labeled anti-His antibody; ProCAT normalisation, local cut-off; triplicate chips
Conditions in all cases: both partners purified
YjfW = biological target: T1, YjfW (E. coli K-12, UniProt P39305 1-284)
T1 construct: YjfW, E. coli K-12
T1 sequence (looked up): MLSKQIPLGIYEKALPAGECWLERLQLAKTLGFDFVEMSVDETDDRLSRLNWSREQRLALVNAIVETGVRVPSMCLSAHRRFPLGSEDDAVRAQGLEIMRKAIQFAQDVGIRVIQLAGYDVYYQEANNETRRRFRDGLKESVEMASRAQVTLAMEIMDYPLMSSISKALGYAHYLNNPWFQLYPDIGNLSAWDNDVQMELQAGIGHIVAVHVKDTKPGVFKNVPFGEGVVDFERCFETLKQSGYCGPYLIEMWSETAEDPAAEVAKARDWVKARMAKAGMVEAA

YqiA = biological target: T2, YqiA (E. coli K-12, UniProt P0A8Z7 1-193)
T2 construct: YqiA, E. coli K-12

InfC = biological target: T3, InfC (E. coli K-12, UniProt P0A707 1-180)
T3 construct: InfC, E. coli K-12
T3 sequence (looked up): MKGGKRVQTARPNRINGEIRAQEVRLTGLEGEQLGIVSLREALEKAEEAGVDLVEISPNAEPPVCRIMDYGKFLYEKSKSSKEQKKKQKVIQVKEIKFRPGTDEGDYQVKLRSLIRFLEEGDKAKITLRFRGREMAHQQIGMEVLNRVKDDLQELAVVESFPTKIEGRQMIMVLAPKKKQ

Measured: binding result

T2 sequence (P0A8Z7 whole entry): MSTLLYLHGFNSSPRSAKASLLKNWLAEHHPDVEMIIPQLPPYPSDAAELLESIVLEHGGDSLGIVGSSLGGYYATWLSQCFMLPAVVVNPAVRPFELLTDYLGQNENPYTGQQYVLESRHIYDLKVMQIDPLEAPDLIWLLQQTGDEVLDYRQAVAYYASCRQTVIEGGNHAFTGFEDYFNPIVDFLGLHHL

B1: N-terminal biotinylated Lactoferricin B (peptide, UniProt P24627 36-60, looked up)
peptide: Biotin-FKCRRWQWRMKKLGAPSITCVRRAF
modifications: ends and bridges not checked
notes: lactoferricin B (LfcinB), cationic antimicrobial peptide of 25 amino acids; also called biotinylated LfcinB; biotin-labeled LfcinB; source: bought: Kelowna Inc
binds: all assays above
